# ± gives the standard deviation.
# Assay: protein stability index of a GFP-peptide fusion (GPS, HEK-293T) (PSI 1-6); higher = more stable
# [1] = treatment: DMSO, c terminus: a fixed tail appended
# [2] = treatment: MLN4924 1 uM, 8 h, c terminus: a fixed tail appended
# [3] = treatment: DMSO, c terminus: native
# [4] = treatment: MLN4924 1 uM, 8 h, c terminus: native
# 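Also: 24-mer peptide tiles fused after GFP, lentivirally expressed, FACS-sorted into six equal bins by GFP/DsRed ratio, decoded by Illumina sequencing, PSI is the read-weighted mean bin number.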
Sequence,protein stability index [1],protein stability index [2],protein stability index [3],protein stability index [4]
MFLQLVPSWNGSLKQLLTETDVWF [GMCL1],3.13 ± 0.68,2.56 ± 1.3,,
GSIMTVWLSTAPTEPLTHWYQVRC [CARM1],2.74 ± 0.99,2.84 ± 0.23,,
PLPFPGPFPAGPLAVAGGPRKTAA [ESRRA],4.43 ± 0.17,4.25 ± 0.14,,
RQSVENDIHGLRKVIDDTNITRLQ [KRT18],4.17 ± 0.22,4.13 ± 0.25,,
DILPIHPPSGNSDLDPDAQNPML [BTBD10],,,5.46 ± 0.17,5.21 ± 0.22
LCWDPVQRVLFSGSSDHSVIMWDI [WDFY2],2.26 ± 0.34,1.93 ± 0.45,,
FGGSFMAPSPSPVTPAQNNLLQPN [SNAP91],2.64 ± 0.59,3.09 ± 0.4,,
MSNQQEKYEAQNIVNSTEESDDAF [IQUB],5.65 ± 0.18,5.47 ± 0.29,,
PSCRHEVVLDRHGVYGLQRNLLVE [TRIM55],2.32 ± 0.36,2.3 ± 0.47,,
CTEKFKTSRDRKDHMVRMHLYPAD [ZNF511],3.49 ± 0.38,3.48 ± 0.25,,
QEMQQKLVELSAENEKLHQRVEQL [CEBPD],4.84 ± 0.1,4.74 ± 0.54,,
NQRMKSKRWQKNNWPKNSNGVTQK [NANOGP8],3.89 ± 0.44,4.2 ± 0.42,,
PRRESLLRGLCRPLRPLLGFRESD [C6orf223],2.36 ± 0.46,2.13 ± 0.43,,
ALRNLPPLRAAHRRFNFDTDRPLL [SMG5],2.72 ± 0.21,2.85 ± 0.45,,
ARLAADDFRVKYETELAMRQSVEN [KRT18],4.39 ± 0.19,4.44 ± 0.21,,
TQEQARKEFQQVFIPECNDDGTYS [SMOC2],4.94 ± 0.27,4.84 ± 0.18,,
NHLQTHDPNKMAFGCEECGKKYNT [PLAGL1],4.14 ± 0.16,4.77 ± 0.27,,
PPPPMQPTVPSAATSQPTPSQHSA [CCDC6],5.23 ± 0.12,5.47 ± 0.18,,
WEEEEDHEKERPEHKSLESLADGG [FANCE],5.46 ± 0.34,5.53 ± 0.19,,
ELAPDFVGDILWEHLEILQKEDVK [ETS1],3.95 ± 0.48,4.17 ± 0.29,,
ALVQEKIQKRNQRQSGDRRQLPPP [WAS],4.31 ± 0.24,4.59 ± 0.086,,
TLLSVLKREAGNLTKATAPDQKSS [SSNA1],2.69 ± 0.13,2.83 ± 0.3,,
MSAKLGKSSSLLTQTSEECNGILT [ZNF396],3.99 ± 0.16,4.2 ± 0.22,,

Sequence,protein stability index [1],protein stability index [2],protein stability index [3],protein stability index [4]
WYRPMYKAFRSDSSFNFFVFFFIF [SCAMP3],2.94 ± 0.34,2.86 ± 0.54,,
AAVKENQMTPTNLAVCLAPSLFHL [DLC1],2.37 ± 0.06,2.61 ± 0.33,,
FSHDGLHVASLADDKMVRFWRIDE [WSB1],2.44 ± 0.48,2.72 ± 0.52,,
EVESLTAARNACRAGTEPSDAIRV [TRIP13],4.33 ± 0.15,4.51 ± 0.27,,
QDEEDMFMVVDLLLGGDLRYHLQQ [STK32A],2.21 ± 0.18,2.1 ± 0.35,,
PSNRSFFSEIISSISDVKFSHSGR [PPP2R2B],2.73 ± 0.44,2.78 ± 0.39,,
EYLSLVKGGQDVKKKVHLSEKIHP [PRIM1],2.65 ± 0.3,2.79 ± 0.39,,
TEPLTHWYQVRCLFQSPLFAKAGD [CARM1],2.11 ± 0.36,2.15 ± 0.61,,
PPGPKGDQGDEGKEGRPGIPGLPG [SCARA5],5.69 ± 0.15,5.36 ± 0.41,,
RTCTAPLDRLKVLMQVHASRSNNM [SLC25A25],2.68 ± 0.2,2.81 ± 0.21,,
AATPRTNSVISVCSSSNLAGNDDS [DLC1],5.08 ± 0.3,5.17 ± 0.083,,
EDENIEVVYSKAASVPKVETVKSD [EIF5],5.44 ± 0.41,5.4 ± 0.19,,
GSQLEDQALRGLEGYTWRVAQLED [ZSWIM9],3.98 ± 0.55,4.25 ± 0.2,,
PPELTASRQSFRMAMGNPSEFFVD [DVL3],4.17 ± 0.21,3.83 ± 0.21,,
KEGGQAGSGQRVPALEEAPDSHQK [ELOA2],5.32 ± 0.21,5.47 ± 0.28,,
YRMRNVHPKPKLVRVLESLLVSLV [CLCN6],2.44 ± 0.75,2.18 ± 0.35,,
VPPKDSAPKDSAPQDLAPQVSAHH [TBC1D10A],5.47 ± 0.19,5.4 ± 0.18,,
KSVMLQIAATELEKEESRREAEKQ [TNNI2],5.07 ± 0.092,5.25 ± 0.26,,
RLLLDSGAQVNMPADSFESPLTLA [ANKRD17],3.44 ± 0.23,3.46 ± 0.41,,
LVLSEDRKSVRYTRQKKNLPDSPL [TRIM15],3.48 ± 0.33,3.77 ± 0.15,,
LNIVERYDPKENKWTRVASMSTRR [KLHL20],3.31 ± 0.084,3.39 ± 0.23,,
YHRETEGEEQAQLLHVSSPNLASD [KCNA1],5.16 ± 0.3,5.21 ± 0.27,,
LRDHADSNIVIMLVGNKSDLRHLR [RAB11A],2.36 ± 0.24,2.18 ± 0.38,,

Sequence,protein stability index [1],protein stability index [2],protein stability index [3],protein stability index [4]
KLSCLFAGPHSTLTPPCSPPEDGL [SNX8],3.25 ± 0.18,3.19 ± 0.4,,
LVQLPNINRVSTCYSEEITVCGDL [PPEF2],2.42 ± 0.42,2.65 ± 0.44,,
RRGWRPSSREDSLEAGLPLQVRGY [CHGA],3.42 ± 0.47,3.8 ± 0.27,,
LGVDTAETSYLEMAAGSEPESVEA [KMT2E],5.27 ± 0.32,5.5 ± 0.42,,
MELLCHEVDPVRRAVRDRNLLRDD [CCND2],4.28 ± 0.34,4.5 ± 0.12,,
DCLQGIRKGLQHGFFDFETFDVDE [CDC14A],3.33 ± 0.3,3.62 ± 0.61,,
VEFNHTGELLATGDKGGRVVIFQR [PPP2R2C],2.54 ± 0.59,2.85 ± 0.44,,
RDLPDTPRRFTFYPCVLATEGFTS [TRIM39],2.56 ± 0.21,2.5 ± 0.2,,
APDGSYFAWSQGHRTVKLVPWSQC [WSB1],2.57 ± 0.47,2.8 ± 0.42,,
RGGMLSASAETLPAGFRVSTLGTL [PPFIA4],3.26 ± 0.14,3.57 ± 0.49,,
SFQPECSMKLTPLVLEVFGNEIS [VDR],,,2.23 ± 0.33,2.41 ± 0.14
LQAKALQLIVTARTTRGLDPLFGM [INTS4],2.88 ± 0.6,2.59 ± 0.66,,
PLFSEDVVLKLFLSFSGSDVQNKL [SNX8],2.1 ± 0.45,2.31 ± 0.39,,
ELRFLLVYLHGDDHQDSDEFCRNT [FAF2],2.29 ± 0.23,2.43 ± 0.32,,
LFLGQGIQVSLYCQEWYARRHCPL [SOAT2],2.83 ± 0.46,2.57 ± 0.46,,
RRHRLGGVGAVPGPGTPTGPSLPS [ZBTB22],4.25 ± 0.22,4.47 ± 0.16,,
YVYFFCTVPEILVHNIVIFMRTSV [TMEM106C],3.13 ± 0.43,2.92 ± 0.37,,
AVQHFYNIKLEGKVPMHKLFLEML [ESRRG],2.06 ± 0.42,2.23 ± 0.22,,
PAPTATVPAPQPPVTKPLFPSAGQ [ZNF207],4.82 ± 0.39,4.8 ± 0.18,,
LREKLLEAEQSLRNLEDIHMSLEK [TEKT4],3.03 ± 0.52,3.3 ± 0.63,,
SRSPSVEGSLWAVGTESQGRDWRH [PXN],4.04 ± 0.11,4.05 ± 0.23,,
PEQSLKKTKTSEYPIIFVYYLRKG [SPANXN3],2.75 ± 1.8,2.59 ± 0.37,,
IQLIKTNKKHIHSRSTLECAYRTH [SMG5],2.38 ± 0.096,2.54 ± 0.1,,

Sequence,protein stability index [1],protein stability index [2],protein stability index [3],protein stability index [4]
STYRKRTPVMEGYVEVKEGKTWKQ [LOXL2],,3.92 ± 0.2,,
DHSSRELSKILAKLERLKQQNEDL [FUT8],3.89 ± 0.12,4.03 ± 0.16,,
ASSNVFSNFEQTQIQEFKEAFTLM [MYL5],3.49 ± 0.18,3.42 ± 0.27,,
APAPAPEEWLDILGNGLLRKKTLV [FKBP8],3.19 ± 0.32,3.24 ± 0.27,,
EHGDQLLSIRCQHQEQVEDLTASH [MTUS2],5.25 ± 0.23,5.09 ± 0.22,,
QTTTAYKKTHETLSHAGQKATAAF [TPD52L1],4.08 ± 0.34,3.98 ± 0.27,,
FIYSTWKGRTIYLEDIYVMPEYRG [SAT2],3.21 ± 0.44,2.8 ± 0.52,,
IDKNTQLTLQVYREQADSCREQLD [TRIM14],4.58 ± 0.21,4.18 ± 0.79,,
PAAPTPESFTVHFLPLNSAQTLHH [DNAAF3],2.87 ± 0.22,3.02 ± 0.23,,
FRGQILGFWEEERPFWEEEKTFWK [CCDC70],2.25 ± 0.33,2.28 ± 0.31,,
MSQTGSHPGRGLAGRWLWGAQPCL [ADAMTS4],3 ± 0.38,2.28 ± 0.87,,
EEAEWESINVLLMMHGLKPLSLVK [CEP70],2.36 ± 0.66,2.31 ± 0.35,,
AQPQGAPCCSSSPEEPLNGESYES [FEM1A],5.41 ± 0.19,5.53 ± 0.2,,
TVFCLVVIFALCWFPLHLSRILKK [EDNRA],2.41 ± 0.61,2.42 ± 1.3,,
PLPHPGAAPWPMAFPYQYPPPPHP [DVL3],3.15 ± 0.28,3.41 ± 0.13,,
DIETACKLLNITADPMDWSPSNVQ [SPDEF],2.75 ± 0.42,2.77 ± 0.17,,
NRDEVLDNLLAFVCDIRPEIHENY [ATP6V1G1],2.49 ± 0.51,2.71 ± 0.37,,
LVKKLQDSVLERWVNDPQRMDKRT [GOLPH3L],2.69 ± 0.14,2.93 ± 0.29,,
QLDALPFFVITMIKIVLINSFGAI [SLC29A1],2.96 ± 0.54,3.31 ± 0.17,,
GIFKIEDSAQVARLWGIRKNRPAM [SPDEF],2.71 ± 0.4,2.86 ± 0.3,,
